Molecular target: the molecule itself
Experiment: native gel or EMSA; non-denaturing Native-PAGE (BN sample buffer), transfer to PVDF, Western blot with mouse anti-human FXIII-B antibody

B1: recombinant wild type FXIII-B subunit (coagulation Factor XIII B subunit) (natural protein, human, UniProt P05160 21-661, looked up)
chain: EEKPCGFPHVENGRIAQYYYTFKSFYFPMSIDKKLSFFCLAGYTTESGRQEEQTTCTTEGWSPEPRCFKKCTKPDLSNGYISDVKLLYKIQENMRYGCASGYKTTGGKDEEVVQCLSDGWSSQPTCRKEHETCLAPELYNGNYSTTQKTFKVKDKVQYECATGYYTAGGKKTEEVECLTYGWSLTPKCTKLKCSSLRLIENGYFHPVKQTYEEGDVVQFFCHENYYLSGSDLIQCYNFGWYPESPVCEGRRNRCPPPPLPINSKIQTHSTTYRHGEIVHIECELNFEIHGSAEIRCEDGKWTEPPKCIEGQEKVACEEPPFIENGAANLHSKIYYNGDKVTYACKSGYLLHGSNEITCNRGKWTLPPECVENNENCKHPPVVMNGAVADGILASYATGSSVEYRCNEYYLLRGSKISRCEQGKWSSPPVCLEPCTVNVDYMNRNNIEMKWKYEGKVLHGDLIDFVCKQGYDLSPLTPLSELSVQCNRGEVKYPLCTRKESKGMCTSPPLIKHGVIISSTVDTYENGSSVEYRCFDHHFLEGSREAYCLDGMWTTPPLCLEPCTLSFTEMEKNNLLLKWDFDNRPHILHGEYIEFICRGDTYPAELYITGSILRMQCDRGQLKYPRCIPRQSTLSYQEPLRT
notes: Coagulation factor XIII B chain, human; F13B cDNA (ORF length 1986 bp) in the pEZ-M01 vector; The whole ORF was expressed; the secreted product was analysed; also called rFXIII-B; rFXIII-B2; source: HEK293T, transiently transfected, secreted into the culture medium
stoichiometry N: 2

Source: paper PMC6514982, “Disruption of Structural Disulfides of Coagulation FXIII-B Subunit; Functional Implications for a Rare Bleeding Disorder” (International Journal of Molecular Sciences, 2019)
